The target of series [1] is T1, IL-9-His recombinant protein (UniProt P15248 19-144).
T1 construct: range 19-144; used as coating antigen in the ELISAs; also called IL9 (19-144)-His; not shown: His tag, C-terminal by the vector name
Nature of the series: ELISA on IL-9-His, 293F culture supernatant, antibody concentration 1 µg/mL. In general terms: In an ELISA, binding on a coated surface is turned into a signal by an enzyme label.

The target in series [2] is T2, biotin-conjugated IL-9-Fc (Biotin-IL-9-Fc) (UniProt P15248 19-144, biotin-conjugated (sites not given)).
T2 construct: range 19-144; also called Fc-IL-9 recombinant protein; Fc-IL-9; not shown: Fc tag (Fc2 in the vector name pLVX-Fc2-IL9 (19-144)-Puro)
T2 sequence (P15248 19-144 limits assumed, form in doubt): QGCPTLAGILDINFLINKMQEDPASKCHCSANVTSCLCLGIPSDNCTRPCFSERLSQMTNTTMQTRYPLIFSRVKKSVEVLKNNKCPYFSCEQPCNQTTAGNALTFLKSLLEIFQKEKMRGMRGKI
The experiment in a line: flow cytometry blocking assay (IL-9-IL-9R blocking determination): serially diluted chimeric antibody against the binding of Biotin-IL-9-Fc to 293-IL-9R cells (IL-9R), MFI; unit taken from the x axis, the table prints none. For orientation: A flow cytometer gives signals particle by particle.

The target of series [3] is T1, IL-9-His recombinant protein. Nature of the series: ELISA on IL-9-His, 293F culture supernatant, antibody concentration 2 µg/mL (second well).
Protocol: (§3) ELISA was conducted according to a standard protocol to determine the affinity of a purified antibody for the IL-9-His recombinant protein. In short, the IL-9-His recombinant protein was diluted with sterile PBS and added at 100 μL/well to a 96-well plate. The plate was incubated at 4° C. overnight and then blocked with a blocking buffer. 100 μL of a purified anti-IL-9 antibody serially diluted was added to the plate, and the plate was incubated for 1 h at room temperature. PBS was added to a control well. The plate was washed with PBST 3 times. Then 100 μL of horseradish peroxidase (HRP)-labeled anti-mouse IgG H&L (BIODRAGON, CAT #BF03001) was added, and the plate was incubated for 1 h at room temperature. The plate was washed with PBST 3 times. Then a chromogenic reaction was conducted with a 3,3′,5,5′-tetramethylbenzidine (TMB) chromogenic solution at room temperature. An OD value in each well was read by a microplate reader. Data was processed with PRISM GraphPad, and curves were plotted. The EC₅₀ value for each candidate antibody was calculated.
Series [4] shares this target. The experiment in a line: ELISA on IL-9-His, 293F culture supernatant, antibody concentration 1 µg/mL (second well).
Protocol: as §3
For series [5] the target is unchanged. The experiment in a line: ELISA on IL-9-His, 293F culture supernatant, antibody concentration 2 µg/mL.
Protocol: as §3
For series [6] the target is unchanged. Nature of the series: BLI (ForteBio), antibody on Protein A sensor, antigen 7.81-125 nM in solution.
Description: The affinity of a humanized antibody was detected by ForteBio (BLI). […] An affinity detection procedure was as follows: equilibration for 60 s, binding for 180 s, and dissociation for 180 s.
Series [7] shares this target. The experiment in a line: ELISA on coated IL-9-His, OD450; unit taken from the x axis, the table prints none.
Protocol: as §3
Series [8] deals with T2, biotin-conjugated IL-9-Fc …. Nature of the series: flow cytometry blocking assay (IL9-IL9R blocking determination): serially diluted antibody against the binding of Biotin-IL-9-Fc to 293-IL-9R cells (IL-9R), MFI; unit taken from the x axis, the table prints none.
Series [9] has as its system silica mouse model of pulmonary fibrosis. Nature of the series: Silica mouse pulmonary fibrosis model. Type of series: in vivo, C57BL/6J mice. The procedure: (§1) 6 to 8-week-old male C57BL/6J mice (purchased from Guangdong Sijiajingda Biotechnology Co., Ltd., license No.: SCXK (Guangdong) 2020-0052) were grouped, modeled, and administered according to the protocols shown in Tables 6 and 7 below. The modeling with bleomycin (Nippon Kayaku, 15 mg powder, and dose: 1.5 mg/kg) and silica (SiO2, sigma, USA, S5631-500 g, and dose: 2.5 mg/mouse) was started on day 0 (DO). The administration was started on day 1 (D1), and normal saline was adopted as a solvent for an antibody. A positive drug pirfenidone (Beijing Kangdini Pharmaceutical Co., Ltd., 100 mg capsule) was adopted in a positive control group, and the humanized antibody hu.CA1 (VH1−VL2) of the present application was adopted in an anti-IL-9 antibody group.
(§2) A body weight of each mouse was measured every day. After the bleomycin model group was administered for 21 d and the silica model group was administered for 30 d, mice were sacrificed to collect lung tissues. The lung tissues each were stained to detect pathological changes in the lung tissues. Specifically, a degree of alveolar inflammation was detected through HE staining (an HE staining kit was purchased from Shanghai Beyotime Biotechnology, C0105M). A degree of pulmonary fibrosis was detected through Masson staining (a Masson staining kit was purchased from Nanjing Jiancheng Institute of Biological Engineering, D026-1-2). Scoring criteria for the HE staining and Masson staining were shown in Table 8 and Table 9 below, respectively (as shown in references: Matute-Bello G, Downey G, Moore B B, et al. An official American Thoracic Society workshop report: features and measurements of experimental acute lung injury in animals. Am J Respir Cell Mol Biol. 2011; 44 (5): 725-738. doi: 10.1165/rcmb.2009-0210ST and Lee Hyun Ju, Goo Jin Mo, Kim Na Ra et al. Semiquantitative measurement of murine bleomycin-induced lung fibrosis in in vivo and postmortem conditions using microcomputed tomography: correlation with pathologic scores—initial results. [J].Invest Radiol, 2008, 43: 453-60).

Series [10] deals with bleomycin mouse model of pulmonary fibrosis. The experiment in a line: Bleomycin mouse pulmonary fibrosis model. The series is classed as in vivo. The procedure: as §1, §2
Series [11] concerns the target T3, IL-9 (Homo sapiens, UniProt P15248).
T3 construct: pcDNA3.4-IL9 (19-144)-His (P15248); His (C); made in house; host or cells: 293F cells (transient transfection)
Nature of the series: ELISA binding of humanized antibodies to the target antigen. To be noted: ELISA of culture supernatant of 293F cells, control chimeric antibody CA1. As to the method: ELISA was conducted according to a standard protocol to determine the affinity of a purified antibody for the IL-9-His recombinant protein. In short, the IL-9-His recombinant protein was diluted with sterile PBS and added at 100 μL/well to a 96-well plate. The plate was incubated at 4° C. overnight and then blocked with a blocking buffer. 100 μL of a purified anti-IL-9 antibody serially diluted was added to the plate, and the plate was incubated for 1 h at room temperature. PBS was added to a control well. The plate was washed with PBST 3 times. Then 100 μL of horseradish peroxidase (HRP)-labeled anti-mouse IgG H&L (BIODRAGON, CAT #BF03001) was added, and the plate was incubated for 1 h at room temperature. The plate was washed with PBST 3 times. Then a chromogenic reaction was conducted with a 3,3′,5,5′-tetramethylbenzidine (TMB) chromogenic solution at room temperature. An OD value in each well was read by a microplate reader. Data was processed with PRISM GraphPad, and curves were plotted. The EC50 value for each candidate antibody was calculated.
Humanized antibody expression vectors carrying a designed heavy-chain or light-chain sequence were transiently transfected into 293F cells in pairs, and then a resulting culture supernatant was collected. According to a standard protocol (with reference to part 5.1 in Example 1), with a human-mouse chimeric antibody CA1 constructed with VH and VL of the original murine antibody as a control, the binding of a humanized antibody to a target antigen was detected by ELISA. The method for ELISA was the same as described in 5.1 of Example 1. […] In the follow-up experiments, the four combinations of VH1−VL2, VH1−VL4, VH2−VL4, and VH3−VL4 (hu.CA1 to hu.CA4) were taken as examples for antibody purification and function testing. […]

Series [12] deals with T4, IL-9 antigen protein (Homo sapiens, UniProt P15248).
T4 construct: pcDNA3.4-IL9 (19-144)-His (P15248) and pLVX-Fc2-IL9 (19-144)-Puro; made in house; host or cells: 293F cells (transient transfection)
T4 sequence (P15248 19-144): as the sequence (P15248 19-144 limits assumed, form in doubt) above
Nature of the series: ForteBio (BLI) affinity detection. The note with it: antibody immobilized on Protein A sensor, antigen 7.81-125 nM. Type of series: binding. As to the method:
The affinity of a humanized antibody was detected by ForteBio (BLI). The chimeric (as a control) and humanized antibodies were immobilized with a Protein A sensor (SARTORIUS, Cat #18-5010) at an immobilization height of about 1 nm. An antigen protein sample was serially diluted with PBS to 125 nM, 62.5 nM, 31.25 nM, 15.625 nM, 7.81 nM, and 0 nM. An affinity detection procedure was as follows: equilibration for 60 s, binding for 180 s, and dissociation for 180 s.
In general terms: Biolayer interferometry detects binding as a change in optical thickness at a sensor tip.

Positions count from the first letter of the chain named.

T1 sequence (P15248 19-144 limits assumed, form in doubt): as above
T3 sequence (P15248 19-144): as the sequence (P15248 19-144 limits assumed, form in doubt) above

B1: 22-F2-E9-C8 chimeric antibody (CA4) (antibody, V domains shown)
VH: EVQVVESGPGLVKPSQSLSLTCSVTGSSFTSGYYWNWIRQFPGNKLEWMGYIRYDGSNNYNPSLKNRISITRDTSKNQFFLKLNSVTSEDTATYYCASYGSSYDAMDYWGQGTSVTVSS
VL: DIQLTQPPASLSASVGETVTITCRASENIDSYLAWYQQKQGKSPQLLVYAATLLADGVPSRFSGSGSGTQYSLKINSLQSEDVARYYCQHYYSTPWTFGGGTKLELK
The term EC50 denotes the concentration at which the effect is half-maximal. B1: the “ELISA OD450” value is 2.63 OD450 in series [1], 2.43 OD450 in series [3], 2.59 OD450 in series [4] and 2.45 OD450 in series [5]. The molecule also had an EC50 in series [2] of 2.96 µg/mL.

B2: 31-D6-B8-B8 chimeric antibody (CA2) (antibody, V domains shown)
VH: B1 VH with V4L, V5K, S27Y, F29S, N58S, Y60H, S88T, S101I, S102T
VL: B1 VL
Regarding B2, the “ELISA OD450” value in [1] came to 2.66 OD450; in series [3], 2.46 OD450; in series [4] it was 2.62 OD450; in [5], 2.49 OD450. Also, the EC50 in series [2] amounted to 15.8 µg/mL.

B3: 38-D8-C7-G9 chimeric antibody (CA1) (antibody, V domains shown)
VH: EVQLKQSGAELMKPGASVKLSCKATGYTFTGYWIEWVKLRPGHGLEWIGEILPGSGSTNYNEEFKGKATFTADTSSNTAYMQLNSLTTEDSAIYYCARRTYYYGIPEDYWGQGTSVTVSS
VL: DIVMTQSQKFMSTSVGDRVSVTCKASQNVGTNVAWHQQKPGQSPKPLIYSASYRYSGVPDRFTGSGSGTDFTLTISNVQSEDLAEYFCQQYNSYPLTFGAGTKLELK
notes: also called CA1 antibody; human-mouse chimeric antibody CA1
As usually defined, the Kd is a measure of binding affinity in units of concentration. For orientation: koff means the first-order rate constant of dissociation. As a reminder, the kon is a measure of how fast the partners come together. On to B3, for which the “ELISA OD450” value in series [1] turned out to be 2.43 OD450; in series [3] it was 2.6 OD450; in [4] it was 2.55 OD450; in series [5], 2.48 OD450. The EC50 in series [2] came to 5.96 µg/mL; in series [7], 0.022 µg/mL; in series [8], 2.07 µg/mL. The Kd in [6] is 0.44 nM. The koff in series [6] was 0.000934 s⁻¹. Besides, the kon in [6] stood at 2.13e+06 M⁻¹ s⁻¹.

B4: humanized antibody VH1-VL2 (hu.CA1) (antibody, V domains shown)
VH: EVQLKQSGAEVMKPGASVKVSCKATGYTFTGYWIEWVRLAPGHGLEWMGEILPGSGSTNYNQKFQGRVTFTADTSINTAYMELSRLRSDDTAIYYCARRTYYYGIPEDYWGQGTLVTVSS
VL: B3 VL with M11F, V15T, S20T, V21I, K24R, D60S, V78L, L83F, L106I
notes: IgG1 / kappa by the vectors pcDNA3.4-IgG1 and pcDNA3.4-IgKc; also called humanized VH1-VL2 antibody
With B4, the Kd in [6] came to 2.38 nM. Also, the koff in series [6] worked out at 0.00253 s⁻¹. Further, the kon in [6] came out at 1.07e+06 M⁻¹ s⁻¹. The values for the EC50 in series [7] and in [8] were 0.035 µg/mL and 5.89 µg/mL, respectively. The “collagen fibers and fibrosis regions of lung tissues (Masson staining)” value in series [9] (30 d) was “significantly reduced”; in [10] (bleomycin model, 21 d), “significantly reduced”. Further, the inflammation score entry is listed as “significantly reduce an inflammation score” in series [9] (30 d, HE staining, FIG. 11B) and “significantly reduce an inflammation score” in series [10] (bleomycin model, 21 d, HE staining, FIG. 9B). Further, the fibrosis score result in series [9] (30 d, Masson staining, FIG. 12B) was “reduce a fibrosis score”; in series [10] (bleomycin model, 21 d, Masson staining, FIG. 10B), “significantly reduce a fibrosis score”. Further, the “lung tissue structures (HE staining)” value was “improved” in [9] (30 d, antibody 100 μg i.p. every other day, pirfenidone 300 mg/kg intragastric daily) and “improved” in [10] (bleomycin model, 21 d, antibody 100 μg i.p. every other day, pirfenidone 300 mg/kg intragastric daily). Besides, the “body weights over time” value in [9] (compared with negative and positive control groups, FIG. 8B) is on record as “changed in a same trend”; in series [10] (bleomycin model, compared with negative and positive control groups, FIG. 8A), “changed in a same trend”. The “inflammation score compared with pirfenidone group” value in series [10] (bleomycin model, 21 d, HE staining) is “slightly lower than the pirfenidone group”. Also, the safety entry in series [10] (conclusion from body weights in bleomycin and silica models) is reported as “excellent safety”. Moreover, the “binding to IL-9” value in series [11] is given as “bind to IL-9 with high affinity”. In addition, the Koff in [12] worked out at 0.002535 s⁻¹. The molecule also yielded a Kon in series [12] of 1.066e+06 M⁻¹ s⁻¹.

B5: 29-B9-F5-B6 chimeric antibody (CA3) (antibody, V domains shown)
VH: EVQLQESGAELMKPGASVKISCKATGYTFSSYWIEWVKQRPGHGLEWIGQILPGSGSNNYNERFKGKATFTADTSSNTAYMQLSSLTSEDSAVYYCAREGNYGEAWFAYWGQGTLVTVSA
VL: DILLTQSPATLSVTPGDSVSLSCRASQSISNNLHWYQQKSHESPRLLIKYASQSMSGIPSRFSGSGSGTDFTLSINSVETEDFGMYFCQQSNSWPLTFGAGTKLELK
B5: the “ELISA OD450” value in series [1] worked out at 2.71 OD450; in series [3], 2.45 OD450; in series [4] it was 2.62 OD450; in series [5], 2.56 OD450. For the same molecule, in [2], the EC50 turned out to be 8.47 µg/mL.

The record behind these values is patent US20250122278A1, “ANTI-INTERLEUKIN-9 ANTIBODY AND USE THEREOF” (GUANGDONG KEGUANDA PHARMACEUTICAL TECHNOLOGY CO., LTD., priority 2022, published 2025).
